Key:
[1] = target: T1, Recombinant human HER2 (human, UniProt P04626 23-652); assay: SPR as in Example 12, one-armed antibody, pre-SEC, against v10013
T1 construct: extracellular domain

[2] = target: T1, Recombinant human HER2; assay: SPR as in Example 12, one-armed antibody, post-SEC, against v10013

- Fold wrt WT (KD(WT)/KD(mut)) [1]: 8.1 fold
- Fold wrt WT (KD(WT)/KD(mut)) [2]: 7 fold
B1: Variant 10014 (antibody, name in Kabat numbering, V domains shown)
VH: EVQLVESGGGLVQPGGSLRLSCAASGFTFADYTMDWVRQAPGKGLEWVADVNPNSGGSIYNQRFKGRFTLSVDRSKNTLYLQMNSLRAEDTAVYYCARNLGPSFYFDYWGQGTLVTVSS
VL: DIQMTQSPSSLSASVGDRVTITCKASQDVSIGVAWYQQKPGKAPKLLIYSASYRYTGVPSRFSGSGSGTDFTLTISSLQPEDFATYYCQQYYIYPATFGQGTKVEIK
notes: also called v10014; OAA variant

— patent publication US20200297862A1 (Zymeworks, published 2020)
